According to paper PMC9431562, “A Cytoplasmic NAD(P)H-Dependent Polysulfide Reductase with Thiosulfate Reductase Activity from the Hyperthermophilic Bacterium Thermotoga maritima” (Microbiology Spectrum, 2022):

What was measured:
[1] = target: T1, NSR (Thermotoga maritima, UniProt Q9WYL1); assay: thin-layer chromatography of cofactor; format: binding; details: as-purified recombinant enzyme
T1 construct: gene TM_0379; full-length ORF amplified from genomic DNA, pET-24b(+) BamHI/XhoI, His-tagged, E. coli BL21; about 50 kDa by SDS-PAGE; FAD flavoprotein; purified anaerobically
T1 sequence (Q9WYL1 1-443): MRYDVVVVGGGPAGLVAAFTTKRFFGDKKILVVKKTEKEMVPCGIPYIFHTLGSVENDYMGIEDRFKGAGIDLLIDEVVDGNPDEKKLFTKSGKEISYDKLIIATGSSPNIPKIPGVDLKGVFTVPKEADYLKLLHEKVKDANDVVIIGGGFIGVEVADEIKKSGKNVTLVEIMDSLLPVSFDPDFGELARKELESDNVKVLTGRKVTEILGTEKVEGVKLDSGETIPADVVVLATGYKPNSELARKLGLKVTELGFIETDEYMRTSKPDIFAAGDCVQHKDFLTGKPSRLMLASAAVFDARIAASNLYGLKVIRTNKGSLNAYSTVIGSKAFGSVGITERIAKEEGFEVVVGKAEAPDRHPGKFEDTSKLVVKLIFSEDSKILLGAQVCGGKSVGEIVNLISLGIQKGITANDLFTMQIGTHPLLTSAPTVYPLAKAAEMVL

[2] = substrate: O=S(O)(O)=S; assay: purified protein; format: biochemical, Thermotoga maritima; details: co-substrate NADH, 50 mM phosphate pH 7.0, 45 °C, anaerobic, table cell does not tell whether CoA was present
[3] = substrate: NC(=O)C1=CN([C@@H]2O[C@H](COP(=O)(O)OP(=O)(O)OC[C@H]3O[C@@H](n4cnc5c(N)ncnc54)[C@H](OP(=O)(O)O)[C@@H]3O)[C@@H](O)[C@H]2O)C=CC1; assay: purified protein; format: biochemical, Thermotoga maritima; details: co-substrate S^0, 50 mM phosphate pH 7.0, 45 °C, anaerobic, table cell does not tell whether CoA was present
[4] = substrate: NC(=O)C1=CN([C@@H]2O[C@H](COP(=O)(O)OP(=O)(O)OC[C@H]3O[C@@H](n4cnc5c(N)ncnc54)[C@H](O)[C@@H]3O)[C@@H](O)[C@H]2O)C=CC1; assay: purified protein; format: biochemical, Thermotoga maritima; details: co-substrate S^0, 50 mM phosphate pH 7.0, 45 °C, anaerobic, table cell does not tell whether CoA was present

Row | Molecule | thin-layer chromatography of cofactor [1] | Km [2] | Km [3] | Km [4]
1 | Cc1cc2nc3c(=O)[nH]c(=O)nc-3n(C[C@H](O)[C@H](O)[C@H](O)COP(=O)(O)OP(=O)(O)OC[C@H]3O[C@@H](n4cnc5c(N)ncnc54)[C@H](O)[C@@H]3O)c2cc1C [FAD] | Thin-layer chromatography analysis showed that it binds FAD as its cofactor |  |  | 
2 | NSR (Thermotoga maritima MSB8) (protein, full-length ORF amplified from genomic DNA, pET-24b(+) BamHI/XhoI, His-tagged, E. coli BL21; about 50 kDa by SDS-PAGE; FAD flavoprotein; purified anaerobically) MRYDVVVVGGGPAGLVAAFTTKRFFGDKKILVVKKTEKEMVPCGIPYIFHTLGSVENDYMGIEDRFKGAGIDLLIDEVVDGNPDEKKLFTKSGKEISYDKLIIATGSSPNIPKIPGVDLKGVFTVPKEADYLKLLHEKVKDANDVVIIGGGFIGVEVADEIKKSGKNVTLVEIMDSLLPVSFDPDFGELARKELESDNVKVLTGRKVTEILGTEKVEGVKLDSGETIPADVVVLATGYKPNSELARKLGLKVTELGFIETDEYMRTSKPDIFAAGDCVQHKDFLTGKPSRLMLASAAVFDARIAASNLYGLKVIRTNKGSLNAYSTVIGSKAFGSVGITERIAKEEGFEVVVGKAEAPDRHPGKFEDTSKLVVKLIFSEDSKILLGAQVCGGKSVGEIVNLISLGIQKGITANDLFTMQIGTHPLLTSAPTVYPLAKAAEMVL |  | 10 ± 1.2 µM | 80 ± 21.2 µM | 50 ± 6.3 µM
